Substitutions are numbered along the chain they refer to. In names and notes the source's numbering stands.
B1: mouse N1ICD (aa 1744–2113) (domain or fragment, UniProt Q01705 1744-2113, looked up)
chain: VLLSRKRRRQHGQLWFPEGFKVSEASKKKRREPLGEDSVGLKPLKNASDGALMDDNQNEWGDEDLETKKFRFEEPVVLPDLSDQTDHRQWTQQHLDAADLRMSAMAPTPPQGEVDADCMDVNVRGPDGFTPLMIASCSGGGLETGNSEEEEDAPAVISDFIYQGASLHNQTDRTGETALHLAARYSRSDAAKRLLEASADANIQDNMGRTPLHAAVSADAQGVFQILLRNRATDLDARMHDGTTPLILAARLAVEGMLEDLINSHADVNAVDDLGKSALHWAAAVNNVDAAVVLLKNGANKDMQNNKEETPLFLAAREGSYETAKVLLDHFANRDITDHMDRLPRDIAQERMHHDIVRLLDEYNLVRSPQ
notes: Notch1 intracellular domain (RAM-ANK), mouse, residues 1744-2113; also called N1 RAM-ANK domain; WT N1ICD
B2: mouse N1^RAICD (aa 1744–2113) (domain or fragment, UniProt Q01705 1744-2113, looked up)
chain: B1 chain with R231A
notes: Notch1 intracellular domain (RAM-ANK), mouse, residues 1744-2113, with Arg1974 in the ANK domain changed to alanine; also called RA mutant; N1^R1974A
B3: human SMT3-MAML1 (aa 1–280) (domain or fragment, UniProt Q92585 1-280, looked up)
chain: MVLPTCPMAEFALPRHSAVMERLRRRIELCRRHHSTCEARYEAVSPERLELERQHTFALHQRCIQAKAKRAGKHRQPPAATAPAPAAPAPRLDAADGPEHGRPATHLHDTVKRNLDSATSPQNGDQQNGYGDLFPGHKKTRREAPLGVAISSNGLPPASPLGQSDKPSGADALQSSGKHSLGLDSLNKKRLADSSLHLNGGSNPSESFPLSLNKELKQEPVEDLPCMITGTVGSISQSNLMPDLNLNEQEWKELIEELNRSVPDEDMKDLFNEDFEEKKD
notes: Mastermind-like 1 (MAML1), human, residues 1-280; also called MAML protein; Mastermind-like

How the values were obtained:
[1] = target: the molecule itself; test: native gel or EMSA; 1xSPS probe; band intensities fitted to a 2-site binding model with cooperativity factor C (Kd,2nd = Kd,1st/C); RBPj 2.5 to 640 nM, N1ICD and MAML at 2 uM; association of two NTCs on DNA
mouse RBPj (aa 53–474) = target: T1, mouse RBPj (aa 53–474) (mouse, UniProt P31266 53-474); test: native gel or EMSA; Notch transcription complexes assembled on fluorescent DNA probes with CSL sites (1.75 nM each probe); RBPj 2.5 to 640 nM in 4-fold steps, with or without N1ICD and MAML at 2 uM; native polyacrylamide gel; details: both partners purified
T1 construct: RBPj (CSL), mouse, residues 53-474; also called CSL
T1 sequence (P31266 53-474): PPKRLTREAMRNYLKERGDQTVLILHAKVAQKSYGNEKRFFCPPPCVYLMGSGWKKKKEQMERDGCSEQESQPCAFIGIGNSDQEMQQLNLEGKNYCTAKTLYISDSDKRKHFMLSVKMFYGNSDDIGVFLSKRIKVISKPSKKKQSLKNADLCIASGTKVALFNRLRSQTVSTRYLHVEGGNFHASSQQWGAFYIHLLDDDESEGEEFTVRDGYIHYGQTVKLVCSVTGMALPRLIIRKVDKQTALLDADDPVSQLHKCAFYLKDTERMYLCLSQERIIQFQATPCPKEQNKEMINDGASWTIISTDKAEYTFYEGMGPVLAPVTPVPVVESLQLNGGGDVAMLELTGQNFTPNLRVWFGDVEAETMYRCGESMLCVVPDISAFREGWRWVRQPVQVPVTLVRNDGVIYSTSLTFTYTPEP

Binder	fold stronger binding of the NTC to the second site than to the first site (cooperativity on 1xSPS) [1] [fold]	binding result (mouse RBPj (aa 53–474))
B1	5	binds
B2	–	binds
B3	–	binds

Reference: PMC7561103, “Notch dimerization and gene dosage are important for normal heart development, intestinal stem cell maintenance, and splenic marginal zone B-cell homeostasis during mite infestation” (PLoS Biology, 2020)
